The results in this text go back to paper PMC10582448, “The Histone Chaperones SET/TAF‐1β and NPM1 Exhibit Conserved Functionality in Nucleosome Remodeling and Histone Eviction in a Cytochrome c‐Dependent Manner”.

The target of data set [1] is cytochrome c (Homo sapiens, UniProt P99999 2-105). Put plainly: NMR; reduced Cc 13 uM, dsDNA 26 uM; Met80 signal decreased on dsDNA addition; NMR: 10 mM sodium phosphate pH 7.4, 1 mM ascorbate, 1 mM TCEP, 5% D2O, 25 C; optical tweezers: 25 mM HEPES, 50 mM KCl, 0.1 mM EDTA, pH 7.5. The following applies: protein: recombinant; blunt.
For data set [2], the target named is SET/TAF-Ibeta (Homo sapiens, UniProt Q01105-2 1-277). Put plainly: NMR; 10 mM sodium phosphate pH 7.4; NMR: 10 mM sodium phosphate pH 7.4, 1 mM ascorbate, 1 mM TCEP, 5% D2O, 25 C; optical tweezers: 25 mM HEPES, 50 mM KCl, 0.1 mM EDTA, pH 7.5. The following applies: protein: recombinant; tags: N-terminal 6xHis; chain copies: 2; blunt.
The target of data set [3] is histone H3 (Xenopus laevis, UniProt P84233 1-136). In words: NMR; H3 competes with Cc for dsDNA; NMR: 10 mM sodium phosphate pH 7.4, 1 mM ascorbate, 1 mM TCEP, 5% D2O, 25 C; optical tweezers: 25 mM HEPES, 50 mM KCl, 0.1 mM EDTA, pH 7.5. The following applies: protein: recombinant; blunt.

Chain of cytochrome c (P99999 2-105): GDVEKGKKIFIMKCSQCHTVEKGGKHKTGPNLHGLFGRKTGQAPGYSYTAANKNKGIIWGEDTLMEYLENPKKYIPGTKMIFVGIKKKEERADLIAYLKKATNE
Chain of SET/TAF-Ibeta (Q01105 other isoform, or with tags, fused parts or gaps): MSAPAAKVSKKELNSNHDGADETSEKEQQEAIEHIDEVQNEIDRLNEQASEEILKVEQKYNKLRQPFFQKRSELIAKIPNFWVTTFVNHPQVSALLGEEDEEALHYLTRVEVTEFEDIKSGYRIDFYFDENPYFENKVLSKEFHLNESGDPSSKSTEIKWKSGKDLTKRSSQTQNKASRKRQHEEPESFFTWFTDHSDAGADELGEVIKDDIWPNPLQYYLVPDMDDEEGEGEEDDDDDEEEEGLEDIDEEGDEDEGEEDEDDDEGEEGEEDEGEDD

B1: 10-mer dsDNA (dsDNA)
DNA 1: TAGCGTAACG
DNA 2: CGTTACGCTA
Consider B1, for which the binding result in data set [1] is on record as “binds”; in data set [2] it was “no binding”; in data set [3], “binds”.
